The source of these data is patent publication US20100015650.

This series deals with BRB1 tyrosine kinase substrate peptide.
Sequence of BRB1 tyrosine kinase substrate peptide (chain, as listed by the source): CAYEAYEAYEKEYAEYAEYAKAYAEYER

Sequence of EphA7 (chain, as listed by the source): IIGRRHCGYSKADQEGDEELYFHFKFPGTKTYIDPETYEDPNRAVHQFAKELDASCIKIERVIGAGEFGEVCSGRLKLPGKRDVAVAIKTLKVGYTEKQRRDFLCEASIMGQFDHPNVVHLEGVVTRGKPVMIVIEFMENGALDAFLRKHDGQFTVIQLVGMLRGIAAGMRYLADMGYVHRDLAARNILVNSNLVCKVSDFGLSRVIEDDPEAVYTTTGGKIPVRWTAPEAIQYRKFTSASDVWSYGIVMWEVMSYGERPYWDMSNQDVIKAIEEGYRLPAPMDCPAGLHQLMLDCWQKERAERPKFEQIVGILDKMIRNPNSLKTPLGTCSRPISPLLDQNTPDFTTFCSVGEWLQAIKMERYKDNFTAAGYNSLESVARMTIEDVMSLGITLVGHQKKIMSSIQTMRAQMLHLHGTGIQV
Sequence of TRKC (NTRK3) (chain, as listed by the source): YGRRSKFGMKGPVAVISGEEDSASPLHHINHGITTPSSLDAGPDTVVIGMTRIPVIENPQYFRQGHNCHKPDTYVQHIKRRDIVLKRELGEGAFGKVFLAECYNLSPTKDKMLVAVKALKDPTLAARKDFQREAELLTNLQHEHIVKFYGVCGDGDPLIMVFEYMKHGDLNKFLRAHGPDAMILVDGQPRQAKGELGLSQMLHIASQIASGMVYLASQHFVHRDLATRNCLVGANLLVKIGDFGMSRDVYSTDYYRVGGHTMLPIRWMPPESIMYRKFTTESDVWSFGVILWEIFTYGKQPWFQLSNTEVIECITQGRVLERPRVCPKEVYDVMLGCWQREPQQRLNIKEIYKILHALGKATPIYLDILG
Sequence of TRKA (NTRK1) (chain, as listed by the source): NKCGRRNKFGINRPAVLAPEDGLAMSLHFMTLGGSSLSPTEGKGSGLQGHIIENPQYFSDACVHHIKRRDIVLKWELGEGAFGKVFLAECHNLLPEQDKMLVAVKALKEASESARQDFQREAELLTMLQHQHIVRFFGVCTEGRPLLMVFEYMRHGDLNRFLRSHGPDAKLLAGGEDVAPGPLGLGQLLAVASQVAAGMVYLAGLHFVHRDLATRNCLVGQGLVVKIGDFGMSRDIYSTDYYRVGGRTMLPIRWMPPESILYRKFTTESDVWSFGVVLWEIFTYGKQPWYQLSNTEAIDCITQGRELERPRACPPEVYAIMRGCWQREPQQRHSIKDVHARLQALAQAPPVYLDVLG
Sequence of YES (chain, as listed by the source): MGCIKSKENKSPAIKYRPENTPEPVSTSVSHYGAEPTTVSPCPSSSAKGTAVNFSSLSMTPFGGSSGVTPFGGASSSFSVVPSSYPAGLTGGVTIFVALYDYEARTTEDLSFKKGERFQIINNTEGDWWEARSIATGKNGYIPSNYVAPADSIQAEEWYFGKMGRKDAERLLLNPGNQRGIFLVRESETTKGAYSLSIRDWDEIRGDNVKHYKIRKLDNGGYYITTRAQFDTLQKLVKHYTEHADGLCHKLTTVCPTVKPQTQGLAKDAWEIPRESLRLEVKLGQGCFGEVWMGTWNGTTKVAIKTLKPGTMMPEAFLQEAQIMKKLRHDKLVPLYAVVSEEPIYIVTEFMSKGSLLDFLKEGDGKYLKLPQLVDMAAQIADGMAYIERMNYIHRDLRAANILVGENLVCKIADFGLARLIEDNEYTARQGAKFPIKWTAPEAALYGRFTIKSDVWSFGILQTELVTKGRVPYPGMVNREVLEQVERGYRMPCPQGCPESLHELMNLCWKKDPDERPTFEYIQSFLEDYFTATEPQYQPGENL
Sequence of TRKB (NTRK2) (chain, as listed by the source): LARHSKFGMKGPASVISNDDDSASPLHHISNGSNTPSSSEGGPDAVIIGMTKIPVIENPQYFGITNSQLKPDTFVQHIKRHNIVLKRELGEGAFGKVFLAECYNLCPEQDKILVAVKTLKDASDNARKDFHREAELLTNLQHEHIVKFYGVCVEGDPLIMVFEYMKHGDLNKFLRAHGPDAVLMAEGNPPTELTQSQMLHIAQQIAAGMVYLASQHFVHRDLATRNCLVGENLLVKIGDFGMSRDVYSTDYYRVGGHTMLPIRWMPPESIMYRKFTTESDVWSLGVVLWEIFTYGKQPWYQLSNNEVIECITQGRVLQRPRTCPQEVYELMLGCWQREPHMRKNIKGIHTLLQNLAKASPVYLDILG
Sequence of BLK (chain, as listed by the source): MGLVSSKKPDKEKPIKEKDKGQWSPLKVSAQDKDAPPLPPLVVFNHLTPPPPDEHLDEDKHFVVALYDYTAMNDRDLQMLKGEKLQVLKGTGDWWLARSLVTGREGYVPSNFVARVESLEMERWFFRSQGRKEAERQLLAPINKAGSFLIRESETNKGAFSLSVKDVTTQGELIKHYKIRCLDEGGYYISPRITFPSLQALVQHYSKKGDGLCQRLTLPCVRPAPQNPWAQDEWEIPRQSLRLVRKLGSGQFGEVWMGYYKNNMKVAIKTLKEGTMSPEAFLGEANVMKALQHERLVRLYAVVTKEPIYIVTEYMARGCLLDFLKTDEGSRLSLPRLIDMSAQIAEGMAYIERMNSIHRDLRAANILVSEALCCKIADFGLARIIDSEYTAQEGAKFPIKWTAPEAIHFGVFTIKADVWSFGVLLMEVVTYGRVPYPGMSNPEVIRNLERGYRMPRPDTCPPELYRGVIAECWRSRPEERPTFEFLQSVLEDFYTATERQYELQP

For the substance BLK, the Signal to Noise ratio with BRB1 Peptide (TR-FRET kinase assay; kinase 0.5 nM) is 31.
With EphA7, the Signal to Noise ratio with BRB1 Peptide (TR-FRET kinase assay; kinase 0.5 nM) came to 17.2.
FGR: the Signal to Noise ratio with BRB1 Peptide (TR-FRET kinase assay; kinase 0.1 nM) is 29.3.
On to LYNa, for which the Signal to Noise ratio with BRB1 Peptide (TR-FRET kinase assay; kinase 0.5 nM) amounted to 32.5.
As to TRKA (NTRK1), the Signal to Noise ratio with BRB1 Peptide (TR-FRET kinase assay; kinase 0.5 nM) is 23.2.
For the substance TRKB (NTRK2), the Signal to Noise ratio with BRB1 Peptide (TR-FRET kinase assay; kinase 0.5 nM) came to 28.
Take TRKC (NTRK3): the Signal to Noise ratio with BRB1 Peptide (TR-FRET kinase assay; kinase 0.5 nM) was determined as 6.4.
Turning to YES, the Signal to Noise ratio with BRB1 Peptide (TR-FRET kinase assay; kinase 0.25 nM) came to 28.
